# Reference: PMC3965382
# T1: purified Gαs, P63092
# T1 chain: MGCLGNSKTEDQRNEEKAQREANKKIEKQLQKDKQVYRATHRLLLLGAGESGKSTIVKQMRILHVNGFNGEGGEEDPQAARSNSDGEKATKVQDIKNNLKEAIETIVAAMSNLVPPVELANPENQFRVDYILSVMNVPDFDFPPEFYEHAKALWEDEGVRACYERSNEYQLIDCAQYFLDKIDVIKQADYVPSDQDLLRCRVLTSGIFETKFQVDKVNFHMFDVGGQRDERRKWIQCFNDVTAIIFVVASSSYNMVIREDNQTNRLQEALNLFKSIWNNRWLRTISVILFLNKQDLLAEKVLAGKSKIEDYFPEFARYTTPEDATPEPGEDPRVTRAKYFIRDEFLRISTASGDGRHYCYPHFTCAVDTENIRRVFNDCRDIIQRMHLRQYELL
# B1: wild-type coronin 1, HA-tagged, O89053 K20A; R69A; K355A; E102A (protein)
# chain: MSRQVVRSSKFRHVFGQPAAADQCYEDVRVSQTTWDSGFCAVNPKFMALICEASGGGAFLVLPLGKTGAVDKNVPLVCGHTAPVLDIAWCPHNDNVIASGSADCTVMVWEIPDGGLVLPLREPVITLEGHTKRVGIVAWHPTAQNVLLSAGCDNVILVWDVGTGAAVLTLGPDVHPDTIYSVDWSRDGALICTSCRDKRVRVIEPRKGTVVAEKDRPHEGTRPVHAVFVSEGKILTTGFSRMSERQVALWDTKHLEEPLSLQELDTSSGVLLPFFDPDTNIVYLCGKGDSSIRYFEITSEAPFLHYLSMFSSKESQRGMGYMPKRGLEVNKCEIARFYKLHERKCEPIAMTVPRASDLFQEDLYPPTAGPDPALTAEEWLGGRDAGPLLISLKDGYVPPKSRELRVNRGLDSARRRATPEPSGTPSSDTVSRLEEDVRNLNAIVQKLQERLDRLEETVQAK
# Molecular target: T1, purified Gαs, P63092
# Assay: SPR
# Settings: chain shown with the change, read off a plot
binder,measurement,setting,value
B1,response,"500 nM coronin 1 injected over immobilized Gαs, parent: est. 120",25 RU
same,response,"1000 nM coronin 1 injected over immobilized Gαs, parent: est. 400",76 RU
